Results taken from article PMC6024076, “mRNA Deadenylation Is Coupled to Translation Rates by the Differential Activities of Ccr4-Not Nucleases”.

T1: Pab1 (Schizosaccharomyces pombe, UniProt P31209 80-653)
T1 sequence: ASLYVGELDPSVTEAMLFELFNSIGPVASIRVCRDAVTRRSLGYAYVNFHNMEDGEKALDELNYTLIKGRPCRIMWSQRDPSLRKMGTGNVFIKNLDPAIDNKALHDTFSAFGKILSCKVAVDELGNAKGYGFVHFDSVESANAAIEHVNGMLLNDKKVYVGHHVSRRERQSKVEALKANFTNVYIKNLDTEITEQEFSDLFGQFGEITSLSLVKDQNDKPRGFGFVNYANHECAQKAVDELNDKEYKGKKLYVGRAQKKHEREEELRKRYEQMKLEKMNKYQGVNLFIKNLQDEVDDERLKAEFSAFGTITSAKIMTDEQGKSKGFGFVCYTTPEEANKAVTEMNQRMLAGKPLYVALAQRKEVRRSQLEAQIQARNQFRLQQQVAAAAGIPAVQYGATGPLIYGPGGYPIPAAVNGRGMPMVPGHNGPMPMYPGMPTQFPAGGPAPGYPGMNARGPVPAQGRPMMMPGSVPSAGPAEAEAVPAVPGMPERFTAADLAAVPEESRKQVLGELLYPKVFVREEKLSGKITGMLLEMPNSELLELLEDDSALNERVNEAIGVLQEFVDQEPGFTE

B1: A12 (ssRNA)
RNA: AAAAAAAAAAAA
B2: A30 (ssRNA)
RNA: AAAAAAAAAAAAAAAAAAAAAAAAAAAAAA
B3: A22 (ssRNA)
RNA: AAAAAAAAAAAAAAAAAAAAAA

How the values were obtained:
[1] = target: GST-Pab1 (S. pombe poly(A)-binding protein Pab1) (S. pombe) (UniProt P31209)
Pab1 [2] = target: T1, Pab1; test: fluorescence polarization; FP: 20 mM HEPES pH 7.4, 150 mM NaCl, 22 C, 2 h, 0.2 nM RNA; switchSENSE: same buffer + 0.001% Tween-20, 25 nM Pab1, 20 C; EMSA: 20 mM PIPES pH 6.8, 10 mM KCl, 90 mM NaCl, 2 mM Mg(OAc)2, 0.1 mM TCEP, 22 C, 200 nM RNA; settings: protein: recombinant; tags: N-terminal GST cleaved with 3C protease; label: 5' 6-FAM
Pab1 [3] = target: T1, Pab1; test: fluorescence polarization; one-site quadratic fit; printed label order scrambled, assigned by koff/kon; FP: 20 mM HEPES pH 7.4, 150 mM NaCl, 22 C, 2 h, 0.2 nM RNA; switchSENSE: same buffer + 0.001% Tween-20, 25 nM Pab1, 20 C; EMSA: 20 mM PIPES pH 6.8, 10 mM KCl, 90 mM NaCl, 2 mM Mg(OAc)2, 0.1 mM TCEP, 22 C, 200 nM RNA; settings: protein: recombinant; tags: N-terminal GST cleaved with 3C protease; label: 5' 6-FAM

Molecule	Kd (Pab1 [2])	other results
S. pombe Ccr4-Not complex (WT), seven core subunits (from UniProt O74874 1-690; O74856 1-335; P87112 1-2100; P87240 1-306; O13870 1-640; Q92368 1-283)	–	average rate of deadenylation of 20-mer-A60 RNA by purified Ccr4-Not with Pab1 (two molecules per RNA; GST cleaved) against without Pab1 [1]: 3 fold
B1	~27000 pM	–
B2	–	Kd (Pab1 [3]): 250 ± 30 pM
B3	~500 pM	–
